Reference: patent publication US20150010526, “EVALUATION AND IMPROVEMENT OF NUCLEASE CLEAVAGE SPECIFICITY” (President and Fellows of Harvard College, published 2015)

B1: VF2468 site 87 (dsDNA)
DNA 1: AGCATTGTCTCATGTGAGTGAGGT
DNA 2: ACCTCACTCACATGAGACAATGCT
B2: CCR5-224 site 15 KCNB2 (dsDNA)
DNA 1: ATGTTCCTCATCTCCCGAAACTGCAAATG
DNA 2: CATTTGCAGTTTCGGGAGATGAGGAACAT
B3: VF2468 site 1 VEGF-A promoter (dsDNA)
DNA 1: AGCAGCGTCTTCGAGAGTGAGGA
DNA 2: TCCTCACTCTCGAAGACGCTGCT
B4: VF2468 site 68 PDE9A (dsDNA)
DNA 1: AGCACCGTCCCCCTCAGTGAGGC
DNA 2: GCCTCACTGAGGGGGACGGTGCT
B5: CCR5-224 site 14 (dsDNA)
DNA 1: GTCCTGCTCAGCAAAAGAAACTGAAAAAG
DNA 2: CTTTTTCAGTTTCTTTTGCTGAGCAGGAC
B6: CCR5-224 site 3 BTBD10 promoter (dsDNA)
DNA 1: GTTTTCCTCATCAAAGCAAACTGCAAAAT
DNA 2: ATTTTGCAGTTTGCTTTGATGAGGAAAAC
B7: CCR5-224 site 9 (dsDNA)
DNA 1: GTCATCTTCATCAAAAGGAACTGCAAAAC
DNA 2: GTTTTGCAGTTCCTTTTGATGAAGATGAC
B8: VF2468 site 23 (dsDNA)
DNA 1: AGCAGCGACGCCTGGGAGTGAGGT
DNA 2: ACCTCACTCCCAGGCGTCGCTGCT
B9: CCR5-224 site 21 (dsDNA)
DNA 1: GTCAACCTCAACACCTACAGACTGCAAAAG
DNA 2: CTTTTGCAGTCTGTAGGTGTTGAGGTTGAC
B10: CCR5-224 site 11 TACR3 (dsDNA)
DNA 1: GTCATCTTCATCAGCATAAACTGTAAAGT
DNA 2: ACTTTACAGTTTATGCTGATGAAGATGAC
B11: CCR5-224 site 2 CCR2 (dsDNA)
DNA 1: GTCGTCCTCATCTTAATAAACTGCAAAAA
DNA 2: TTTTTGCAGTTTATTAAGATGAGGACGAC
B12: VF2468 site 18 (dsDNA)
DNA 1: AGCAGAGTCAGACTTGAGTGAGGT
DNA 2: ACCTCACTCAAGTCTGACTCTGCT
B13: CCR5-224 site 1 CCR5 (dsDNA)
DNA 1: GTCATCCTCATCCTGATAAACTGCAAAAG
DNA 2: CTTTTGCAGTTTATCAGGATGAGGATGAC
B14: VF2468 site 72 (dsDNA)
DNA 1: AGAAACGTCGTGGAGGAGTGAGGG
DNA 2: CCCTCACTCCTCCACGACGTTTCT
B15: VF2468 site 73 (dsDNA)
DNA 1: AGCAAAGTCTGTACTGAGTGAGGG
DNA 2: CCCTCACTCAGTACAGACTTTGCT
B16: VF2468 site 80 (dsDNA)
DNA 1: AGCACGGTCATGATGAGTGAGGC
DNA 2: GCCTCACTCATCATGACCGTGCT
B17: CCR5-224 site 16 (dsDNA)
DNA 1: GTCTTCCTGATGCTACCAAACTGGAAAAG
DNA 2: CTTTTCCAGTTTGGTAGCATCAGGAAGAC
B18: VF2468 site 11 PTK2B (dsDNA)
DNA 1: AGCAGCGTCTCCCTTGAGTGATGG
DNA 2: CCATCACTCAAGGGAGACGCTGCT
B19: VF2468 site 79 (dsDNA)
DNA 1: AGCACCGTGGCTTCGAGTGAGGC
DNA 2: GCCTCACTCGAAGCCACGGTGCT
B20: CCR5-224 site 25 WBSCR17 (dsDNA)
DNA 1: GTTATCCTCAGCAAACTAAAACTGGAACAG
DNA 2: CTGTTCCAGTTTTAGTTTGCTGAGGATAAC

Key:
[1] = biological target: VF2468 ZFN pair expressed in K562 (artificial); assay: cell_activity; K562; conditions: tags: FokI cleavage domain
[2] = biological target: CCR5-224 ZFN pair expressed in K562 (artificial); assay: cell_activity; K562; conditions: tags: FokI cleavage domain
Description: We were unable to obtain site-specific PCR amplification products for three CCR5-224 sites and seven VF2468 sites and therefore could not analyze the occurrence of NHEJ at those loci. Taken together, these observations indicate that off-target sequences identified through the in vitro selection method include many DNA sequences that can be cleaved by ZFNs in human cells.
To deliver ZFN expression plasmids into cells, 15 μg of either active CCR5-224 ZFN DNA or empty vector DNA were used to Nucleofect 2×10⁶ K562 cells in duplicate reactions following the manufacturer's instructions for Cell Line Nucleofector Kit V (Lonza). GFP-positive cells were isolated by FACS 24 hours post-transfection, expanded, and harvested five days post-transfection with the QIAamp DNA Blood Mini Kit (Qiagen).
PCR for 37 potential CCR5-224 substrates and 97 potential VF2468 substrates was performed with Phusion DNA Polymerase (NEB) and primers “[ZFN] […] fwd” and “[ZFN] […] rev” (Table 9) in 1× Phusion HF Buffer supplemented with 3% DMSO. Primers were designed using Primer3³³. The amplified DNA was purified with the Qiagen PCR Purification Kit, eluted with 10 mM Tris-HCl, pH 8.5, and quantified by 1K Chip on a LabChip GX instrument (Caliper Life Sciences) and combined into separate equimolar pools for the catalytically active and empty vector control samples. PCR products were not obtained for 3 CCR5 sites and 7 VF2468 sites, which excluded these samples from further analysis. Multiplexed Illumina library preparation was performed according to the manufacturer's specifications, except that AMPure XP beads (Agencourt) were used for purification following adapter ligation and PCR enrichment steps. Illumina indices 11 (“GGCTAC”) and 12 (“CTTGTA”) were used for ZFN-treated libraries while indices 4 (“TGACCA”) and 6 (“GCCAAT”) were used for the empty vector controls. Library concentrations were quantified by KAPA Library Quantification Kit for Illumina Genome Analyzer Platform (Kapa Biosystems). Equal amounts of the barcoded libraries derived from active- and empty vector-treated cells were diluted to 10 nM and subjected to single read sequencing on an Illumina HiSeq 2000 at the Harvard University FAS Center for Systems Biology Core facility. Sequences were analyzed using Protocol 9 for active ZFN samples and empty vector controls.

VF2468 ZFN pair = VF2468 ZFN pair (artificial); assay: cleavage_in_vitro; ZFN amount for 50% cleavage of 8 nM linear substrate, 4 h 37 C, 10 mM Mg acetate; FIG. 9 legend gives spacer as TCGAA; conditions: tags: N-terminal FLAG, FokI cleavage domain
Description: (§1) FIGS. 6A-D. Expression and quantification of ZFNs. Western blots for CCR5-224 and VF2468 are shown (a) for the ZFN samples used in the in vitro selection, and (b) for quantification. (c) Known quantities of N-terminal FLAG-tagged bacterial alkaline phosphatase (FLAG-BAP) were used to generate a standard curve for ZFN quantification. […] (d) Gels are shown of activity assays of CCR5-224 and VF2468 on an 8 nM linear substrate containing one target cleavage site. The ZFNs were each incubated with their respective substrate for 4 hours at 37° C. DNA in the “+lysate” lane was incubated with an amount of in vitro transcription/translation mixture equivalent to that used in the 2.5 nM ZFN reaction. ZFN-mediated cleavage results in two linear fragments approximately 700 bp and 300 bp in length. 2 nM CCR5-224 and 1 nM VF2468 were the amounts required for 50% cleavage of the linear substrate.
(§2) Test substrates for CCR5-224 and VF2468 were constructed by cloning into the HindIII/XbaI sites of pUC19. PCR with primers “test fwd” and “test rev” and Taq DNA polymerase yielded a linear 1 kb DNA that could be cleaved by the appropriate ZFN into two fragments of sizes ˜300 bp and ˜700 bp. […] Reactions were purified with the Qiagen PCR Purification Kit and analyzed on 1% TAE-agarose gels.

CCR5-224 ZFN pair = CCR5-224 ZFN pair (artificial); assay: cleavage_in_vitro; ZFN amount for 50% cleavage of 8 nM linear substrate, 4 h 37 C, 10 mM Mg acetate; conditions: tags: N-terminal FLAG, FokI cleavage domain
Description: as §1, §2

Sequence of VF2468 ZFN pair expressed in K562 (artificial) (chain, as listed by the source, chain 1 of 2): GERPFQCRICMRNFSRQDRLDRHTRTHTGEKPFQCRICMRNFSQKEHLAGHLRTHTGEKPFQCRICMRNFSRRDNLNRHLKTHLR
Sequence of VF2468 ZFN pair expressed in K562 (artificial) (chain, as listed by the source, chain 2 of 2): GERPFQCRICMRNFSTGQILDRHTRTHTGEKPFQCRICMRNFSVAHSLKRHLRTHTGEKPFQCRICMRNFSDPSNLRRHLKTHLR
Sequence of CCR5-224 ZFN pair expressed in K562 (artificial) (chain, as listed by the source, chain 1 of 2): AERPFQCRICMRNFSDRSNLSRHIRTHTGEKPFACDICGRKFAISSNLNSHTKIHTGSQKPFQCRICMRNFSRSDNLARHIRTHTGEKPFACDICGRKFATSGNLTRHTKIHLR
Sequence of CCR5-224 ZFN pair expressed in K562 (artificial) (chain, as listed by the source, chain 2 of 2): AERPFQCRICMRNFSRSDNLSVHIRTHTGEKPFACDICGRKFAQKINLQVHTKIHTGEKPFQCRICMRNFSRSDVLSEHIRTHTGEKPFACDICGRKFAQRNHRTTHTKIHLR

Binder | activity [1] | activity [2] | also measured
B1 | 0.6 % indels | – | –
B2 | – | 0.071 % indels | –
B3 | – | – | EC50 (VF2468 ZFN pair): 1 nM
B4 | 0.28 % indels | – | –
B5 | – | 0.025 % indels | –
B6 | – | 0.07 % indels | –
B7 | – | 0.035 % indels | –
B8 | 1.1 % indels | – | –
B9 | – | 0.06 % indels | –
B10 | – | 0.34 % indels | –
B11 | – | 10 % indels | –
B12 | 0.1 % indels | – | –
B13 | – | 44 % indels | EC50 (CCR5-224 ZFN pair): 2 nM
B14 | 0.042 % indels | – | –
B15 | 1.3 % indels | – | –
B16 | 0.041 % indels | – | –
B17 | – | 0.019 % indels | –
B18 | 0.04 % indels | – | –
B19 | 0.029 % indels | – | –
B20 | – | 0.12 % indels | –
